From PMC6340890, “Transcriptional mechanism of IRF8 and PU.1 governs microglial activation in neurodegenerative condition”

B1: Tak1 probe (dsDNA)
DNA 1: CCTTCCATGGTTTCAGTTCCTCTTAAGGGA
DNA 2: TCCCTTAAGAGGAACTGAAACCATGGAAGG
B2: Ikbkb probe (dsDNA)
DNA 1: CCGTCCTCAGTTTCACTTCCTGTCAGTGCT
DNA 2: AGCACTGACAGGAAGTGAAACTGAGGACGG
B3: Nfkb1 probe (dsDNA)
DNA 1: TCCCCCCTGGTTTCCCTTCCTGTAAATACA
DNA 2: TGTATTTACAGGAAGGGAAACCAGGGGGGA
B4: Ripk2 probe (dsDNA)
DNA 1: ACAGTCTTACTTTCACTTCCTGAATTCATT
DNA 2: AATGAATTCAGGAAGTGAAAGTAAGACTGT

Legend:
IRF8;PU.1 [1] = biological target: T1, IRF8;PU.1 (Mus musculus;Mus musculus, UniProt P23611;P17433 1-424;1-272, |); experiment: EMSA; synergistic; supershifted by anti-IRF8 and by anti-PU.1, not by control IgG; LightShift Chemiluminescent EMSA Kit; buffer, salt and pH not stated; supershift incubation 4 °C, 20 min; details: protein: recombinant;recombinant; tags: Flag;Flag; copies: 1;1; label: 5'-biotin (both strands)
IRF8;PU.1 [2] = biological target: T1, IRF8;PU.1; experiment: EMSA; synergistic; LightShift Chemiluminescent EMSA Kit; buffer, salt and pH not stated; supershift incubation 4 °C, 20 min; details: protein: recombinant;recombinant; tags: Flag;Flag; copies: 1;1; label: 5'-biotin (both strands)

T1 sequence (P23611 whole entry, chain 1 of 2, other chains not shown): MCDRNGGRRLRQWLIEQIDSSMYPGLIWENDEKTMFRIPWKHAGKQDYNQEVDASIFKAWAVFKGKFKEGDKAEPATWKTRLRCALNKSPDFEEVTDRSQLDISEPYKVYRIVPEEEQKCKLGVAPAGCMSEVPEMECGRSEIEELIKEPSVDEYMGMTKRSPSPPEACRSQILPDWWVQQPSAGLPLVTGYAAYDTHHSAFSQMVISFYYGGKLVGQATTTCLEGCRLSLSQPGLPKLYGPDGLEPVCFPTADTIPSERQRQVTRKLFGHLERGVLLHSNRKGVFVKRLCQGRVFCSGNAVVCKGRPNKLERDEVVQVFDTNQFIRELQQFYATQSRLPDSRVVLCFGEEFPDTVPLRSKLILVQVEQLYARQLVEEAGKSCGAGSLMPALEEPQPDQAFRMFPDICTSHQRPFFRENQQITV

Row | Binder | binding result (IRF8;PU.1 [1]) | binding result (IRF8;PU.1 [2])
1 | B1 | binds | 
2 | B2 |  | binds
3 | B3 |  | binds
4 | B4 | binds | 
